We go through nine sequences from US20160193316A1 (priority 1994, published 2016).

One assay concerns the target HLA-A*0201 (Homo sapiens, UniProt P04439, D140Y/D185E/D98H/E176V/E277Q/G131W/G231S/I119V/I121R/I166T/I218V/L300P/L318F/N151K/N90K/P208A/P217A/Q86G/Q94H/R138H/R169H/T345S). As to the kind of experiment: HLA class I peptide binding assay. As to conditions: Malaria A02 motif peptides, Table VIII; unit not given.
The target in another assay is T1, DRB1*0101 (DR1) (Homo sapiens, UniProt P01903+P01911, A100R/D57E/F55L/F60I/F76Y/I96L/L162R/M171V/P40L/Q125E/R42F/V115G/Y59C).
T1 construct: endogenous in cells; host or cells: LG2
T1 sequence (P01903 26-254 partner, other chains not shown): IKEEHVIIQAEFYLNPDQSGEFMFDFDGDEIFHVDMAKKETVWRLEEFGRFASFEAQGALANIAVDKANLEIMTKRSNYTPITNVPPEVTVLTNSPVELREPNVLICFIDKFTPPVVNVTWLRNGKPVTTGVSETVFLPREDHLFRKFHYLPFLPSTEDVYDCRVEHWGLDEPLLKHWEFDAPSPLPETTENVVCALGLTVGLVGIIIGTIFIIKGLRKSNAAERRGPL
Briefly: HLA class II peptide binding assay. As to conditions: for DR1 binding data: Table XIXb, Malaria Super Motif Peptides With Binding Data.

The next assay deals with T2, DRB1*0301 (DR3) (Homo sapiens, UniProt P01903+P01911, A100K/A102G/A103R/A169T/F55Y/I96L/K41T/L162R/M171V/P40S/Q125H/Q178H/Q39Y/R42S/S66N/T106N/T262R/W38E/Y61H).
T2 construct: endogenous in cells; host or cells: MAT
Briefly: HLA class II peptide binding assay (pH 4.5). The conditions noted are these: for DR3 binding information: DR3a motif peptides, unit not given, exemplary 15-mer containing the core sequence; for DR3 binding data: Table XIXb.

In a further assay the target is T3, DRB1*0401 (DR4w4) (Homo sapiens, UniProt P01903+P01911, A100K/A169T/F76Y/I96L/K127E/L162R/M171V/N62H/P40V/Q125Y/R42H/S133A/S149N/S66Y/V115G/V209L/W38E).
T3 construct: endogenous in cells; host or cells: Preiss
T3 sequence (P01903 26-254 partner, other chains not shown): as above
As to the kind of experiment: HLA class II peptide binding assay. The conditions noted are these: for DR4w4 binding data: Table XIXb.

A further assay deals with T4, DRB1*0405 (DR4w15) (Homo sapiens, UniProt P01903+P01911, A100R/A169T/D86S/F76Y/I96L/K127E/L162R/M171V/N62H/P40V/Q125Y/R42H/S133A/S149N/S66Y/V115G/V209L/W38E).
T4 construct: endogenous in cells; host or cells: KT3
As to the kind of experiment: HLA class II peptide binding assay. As to conditions: for DR4w15 binding data: Table XIXb.

For another assay, the target named is T5, DRB1*0701 (DR7) (Homo sapiens, UniProt P01903+P01911, A100R/A102G/A103Q/D57E/D86V/E43K/F76Y/K127E/L162R/M171V/P40G/Q125H/Q99D/R33Q/R42Y/R54Q/S133A/S66F/T210M/V115G/Y107V/Y59L/Y89S).
T5 construct: endogenous in cells; host or cells: Pitout
Briefly: biochemical. The assay is classed as binding.

For a further assay, the target named is T6, DRB1*0802 (DR8w2) (Homo sapiens, UniProt P01903+P01911, A100R/A103L/A169T/F76Y/H45Y/I96F/K41T/L162R/M171V/P40S/Q125H/Q178H/Q39Y/Q99D/R218S/R42G/S66Y/V115G/W38E).
T6 construct: endogenous in cells; host or cells: OLL
As to the kind of experiment: biochemical. Type of assay: binding.

In a further assay the target is T7, DRB1*1101 (DR5w11) (Homo sapiens, UniProt P01903+P01911, A100R/A169T/A87E/I96F/K41T/L162R/M171V/P40S/Q125H/Q178H/Q39Y/Q99D/R42S/S66Y/T262R/V115G/W38E).
T7 construct: endogenous in cells; host or cells: Sweig
T7 sequence (P01903 26-254, other chains not shown): as the sequence (P01903 26-254 partner, other chains not shown) above
Briefly: biochemical. The assay is classed as binding.

Another assay addresses T8, DRB1*1201 (DR5w12) (Homo sapiens, UniProt P01903+P01911, A100R/A169T/D57E/D86V/F55L/H45Y/K41T/L162R/M171V/P40S/Q125H/Q178H/Q39Y/Q99D/R42G/S66L/T262R/V114A/V67L/W38E/Y59H/Y61H/Y89S).
T8 construct: endogenous in cells; host or cells: Herluf
As to the kind of experiment: HLA class II peptide binding assay. As to conditions: for DR5w12 binding data: Table XIXb.

A further assay addresses T9, DRB4*0101 (DRw53) (Homo sapiens, UniProt P01903+P13762, G164S).
T9 construct: expressed in transfected cells; host or cells: L257.6 (fibroblasts)
As to the kind of experiment: HLA class II peptide binding assay (pH 5.0). The conditions noted are these: for DRw53 binding data: Table XIXb.

The next assay concerns the target T10, DRB5*0101 (DR2w2β2) (Homo sapiens, UniProt P01903+Q30154).
T10 construct: expressed in transfected cells; host or cells: L416.3 (fibroblasts) or GM3107
The assay is classed as binding.

A further assay deals with T11, DRB1*0901 (DR9) (Homo sapiens, UniProt P01903+P01911, A100R/A103E/D57H/D86V/F55Y/F60I/F76Y/I96F/K127E/L162R/M171V/P40D/Q125H/Q99R/R33Q/R42F/S133A/S66N/T210M/V115G/W38K/Y107V/Y59G/Y89S).
T11 construct: endogenous in cells; host or cells: HID
As to the kind of experiment: biochemical. Type of assay: binding.

In a further assay the target is T12, DRB1*1302 (DR6w19) (Homo sapiens, UniProt P01903+P01911, A100E/A169T/K41T/L162R/M171V/P40S/Q125H/Q178H/Q39Y/Q99D/R42S/S66N/T262R/V115G/W38E/Y61H).
T12 construct: endogenous in cells; host or cells: H0301
T12 sequence (P01903 26-254, other chains not shown): as the sequence (P01903 26-254 partner, other chains not shown) above
Briefly: HLA class II peptide binding assay. The conditions noted are these: Table XIXb; DR6w19.

The next assay concerns the target T13, DRB1*1501 (DR2w2β1) (Homo sapiens, UniProt P01903+P01911).
T13 construct: expressed in transfected cells; host or cells: L466.1 (fibroblasts)
Briefly: HLA class II peptide binding assay. The conditions noted are these: Table XIXb; DR2w2β1.

A further assay has as its target T14, HLA-B*0702 (Homo sapiens, UniProt P01889).
T14 construct: endogenous in cells; host or cells: GM3107
As to the kind of experiment: HLA class I peptide binding assay. The conditions noted are these: Malaria B07 super motif peptides; binding value, no unit.

For a further assay, the target named is HLA-A*2402 (Homo sapiens, UniProt P04439, D101N/D140Y/D185E/E176V/E190D/F33S/G103R/G107R/I119L/I121M/I306V/K335N/L105A/L180Q/L300P/N151K/N90K/Q86E/Q94H/R106L/R138H/R89G/T104I/T345S/V100E/W191G/Y123F). Briefly: HLA class I peptide binding assay.
The mark [1] stands for this setting: DR3a motif peptides, unit not given, exemplary 15-mer containing the core sequence.

For LLMDCSGSI, the “A*0201 (binding information)” value in the assay with HLA-A*0201 stood at 0.0460. In the assay with DRB1*0101 (DR1) (setting [1]), the DR1 binding information amounted to 0.0041. This sequence also registered a DR3 binding information with DRB1*0301 (DR3) of 0.0300. This sequence registered a DR4w4 binding information with DRB1*0401 (DR4w4) (setting [1]) of 0.0340. The DR4w15 binding information with DRB1*0405 (DR4w15) (setting [1]) is 0.0028. Besides, in the assay with DRB1*0701 (DR7), the DR7 binding information worked out at 0.0072. Moreover, in the assay with DRB1*0802 (DR8w2), the DR8w2 binding information stood at 0.0014. Moreover, in the assay with DRB1*1101 (DR5w11), the DR5w11 binding information was -0.0002. Besides, the DR5w12 binding information with DRB1*1201 (DR5w12) (setting [1]) is given as 0.0001. The sequence also displayed a DRw53 binding information with DRB4*0101 (DRw53) (setting [1]) of 0.0057. The DR2w2β2 binding information in the assay with DRB5*0101 (DR2w2β2) turned out to be 0.0250.
With LTMSNVKNV, the “A*0201 (binding information)” value on HLA-A*0201 was found to be 0.0010. At DRB1*0101 (DR1), this sequence displayed a DR1 binding data of 0.0018. For the same sequence, on DRB1*0301 (DR3), the DR3 binding data is listed as 0.0058. The DR4w4 binding data at DRB1*0401 (DR4w4) worked out at 0.0023. On DRB1*0405 (DR4w15), this sequence displayed a DR4w15 binding data of 0.0074. In addition, at DRB1*0701 (DR7), the DR7 binding data worked out at 0.0410. The DR8w2 binding data on DRB1*0802 (DR8w2) was found to be 0.0110. The DR9 binding data on DRB1*0901 (DR9) worked out at 0.0710. Further, on DRB1*1101 (DR5w11), the DR5w11 binding data was determined as 0.0030. This sequence also displayed a DR5w12 binding data at DRB1*1201 (DR5w12) of 0.0001. In addition, the DR6w19 binding data at DRB1*1302 (DR6w19) is given as 0.0430. The DR2w2β1 binding data at DRB1*1501 (DR2w2β1) came to 0.0003. The DRw53 binding data on DRB4*0101 (DRw53) is recorded as 0.0024. Further, the DR2w2β2 binding data on DRB5*0101 (DR2w2β2) stood at 0.0009.
Regarding MPNDPNRNV, the “B*0702 (binding information)” value at HLA-B*0702 stood at 0.0001. At DRB1*0301 (DR3), this sequence had a DR3 binding information of -0.0033.
In the assay with HLA-A*2402 (Table X, Malaria A24 Super Motif Peptides With Binding Information, unit not given), PYAQEPAPF yielded an HLA-A24 binding value of 0.0370.
Turning to TPYAGEPAPF, on HLA-B*0702, the “B*0702 (binding information)” value was found to be 0.0990.
As for VIGPFMKAV, the “A*0201 (binding information)” value with HLA-A*0201 is listed as 0.0004. The sequence also came in with a DR4w4 binding data in the assay with DRB1*0401 (DR4w4) of -0.0020. Besides, in the assay with DRB1*0802 (DR8w2), the DR8w2 binding data was 0.0230. For the same sequence, the DR5w12 binding data with DRB1*1201 (DR5w12) turned out to be 0.0920.
As to VPGAAIPYA, the “B*0702 (binding information)” value in the assay with HLA-B*0702 is 0.0001.
With WVNHAVPLA, in the assay with HLA-A*0201, the “A*0201 (binding information)” value worked out at 0.0008. Besides, the DR1 binding data with DRB1*0101 (DR1) was determined as 0.1900. This sequence also showed a DR3 binding data with DRB1*0301 (DR3) of 0.4000. The sequence further showed a DR4w4 binding data with DRB1*0401 (DR4w4) of 5.0000. Moreover, the DR4w15 binding data with DRB1*0405 (DR4w15) turned out to be 0.0360. In the assay with DRB1*0701 (DR7), this sequence registered a DR7 binding data of 0.4400. The same sequence showed a DR8w2 binding data with DRB1*0802 (DR8w2) of 1.8000. In the assay with DRB1*0901 (DR9), this sequence came in with a DR9 binding data of 4.6000. The sequence further returned a DR5w11 binding data in the assay with DRB1*1101 (DR5w11) of 0.0079. The same sequence registered a DR5w12 binding data with DRB1*1201 (DR5w12) of 0.0240. Further, the DR6w19 binding data in the assay with DRB1*1302 (DR6w19) worked out at 0.8900. In the assay with DRB1*1501 (DR2w2β1), this sequence had a DR2w2β1 binding data of 0.0350. Moreover, the DRw53 binding data with DRB4*0101 (DRw53) was 0.0430. This sequence also displayed a DR2w2β2 binding data with DRB5*0101 (DR2w2β2) of 0.1600.
Take YYIPHQSSL: at HLA-A*2402, the “A*201 (binding information)” value is given as 4.3000 and the “A*2401 (binding information, Malaria A24 motif peptides)” value is 4.3000.
